Assay: label from the status in PepcDB records
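Note: failed if final PepcDB status was selected cloned or expressed and not failed if soluble or beyond.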

In the case of “LGLVCLTVGPEVRFRTVTLSRYRALSPAEREAKLLDLYSSNIKTLRGAADYCAAHDIRLYRLSSSLFPMLDLAGDDTGAAVLTHLAPQLLEAGHAFTDAGVRLLMHPEQFIVLNSDRPEVRESSVRAMSAHARVMDGLGLARTPWNLLLLHGGKGGRGAELAALIPDLPDPVRLRLGLENDERAYSPAELLPICEATGTPLVFDAHHHVVHDKLPDQEDPSVREWVLRARATWQPPEWQVVHLSNGIEGPQDRRHSHLIADFPSAYADVPWIEVEAKGKEEAIAALRLMAPFKKD”, the protein production is reported as “failed”.
In the case of “MFIGGAIISFLFLFGYMWKEAHSNRIRHVTLSFPHFPDNGPPLTIFFISDIHRRSVSCRMLETVKGKADLVVIGGDLAEKGVPAARVRENVRRLQTVAPVYFVWGNNDDEVDYDLQSLLEEERVYVLKNKAEVWEHGGVPIALIGVGDVSRKEADIARALEHVPPESFRILACHNPAIIARLEDEQHISLVLSGHTHGGQIRLFSFGLYEKGGLKWHGNTALFTSNGYGTTGVPLRLGAPAETHLIKIVPGKLATEKKCLSKTGKTMLEHHHHHH”, the protein production is reported as “failed”.
For “KKPLSVFKGPLLHISPAEELYFGSIESGEKKTLIVLTNVTKNIVAFKVRTTAPEKYRVKPSNSSCDPGASIDIIVSPHGGLTVSAQDRFLIMAAEMEQSSGTGPAELSQFWKEVPRNKVMEHRLRCHTVESSKPNSLML”, the protein production was “not failed”.
For “MKRFVLLDTTAIPENGGALCLFEYGEDFVIKIQGGDGGQLMNTRMHGSEDALAQIPCSKVAGRPNSRVLIGGLGMGFTLAAALKHLGKSAKVVVAELVPGVVEWNRGPLGEKSGRPLLDPRTVIRLEDVAKVLQAEPQGFDAIMLDVDNGPEGLTQKANSWLYSSAGLAACARALRPKGILAVWSASADRQFSERLRKAGFKAEEVQVFAHGNRGTRHTIWIAEKLKA”, the protein production was “failed”.
For “MKHIFRFKNYFFHSKNNQLKRLLLVAFLLTGLWLTPQQGRVWGQEQPFVVKKIDLSQYGAAASIAQDPESKQLAIGFYNCNLIFLDANLNQDQKNNLFLKNCKRFFRARYGEFGSIPFLISSIYTGSSVLHNSQENFDIPLHKAAVTDSLILQDYLLSSSDDGSVTISRLISLSPPEVNTFKLYQSIGVARNLAFTHTSNPEVGKVAVSYDTGEIAIFNIDHDTARNPVEPSTFKTINSRINTFKFTPDGAKLLIGYFTGELVELDLATGAHKTLAKVNSWLNALDINSENLVAIADDQGFVKIISLTTGKIVEEHKISTTGINAVIFTDDQTVVAADATGMIYQGKLAGSN”, the protein production was “failed”.
With “MKEEIVNERQCETEDEKIDIQQLLFKYIIHWPWFVGAVLVCLIGAWIYLRMATPVYNISATVLIKDDKKGGNTGSMVGLEELGLSGLISSSQNIDNELEVLRSKTLVKEVINLLNLYVSYTDEDGFPSKNMYKTSPVLVSLTPQEAEKLTDPMVVEMALYGEGGLEVNVTVGDKEYQKHFEKLPAVFPMDEGTLAFFQSPDSLSLKKDTMEASSNIRHITAKIKSPMKVARAYCENLKIEPTSKTTSVAVISLKNSSLQRGQDFINQLLEMYNRNTNNDKNEIAQKTAEFIDERINIISKELGSTEANLENFKRNAGITDLTSEAQIALTGNAEYEKKRVENRTQISLIEDLRKYIRGNEYEVLPGNIGLQDPGLVATIERYNEMLVERKRLLRTSTENNPTIINLDTSIRAMKSNVQATLDGSLKGLLITKADLEREASRFSRRISDAPGQERQFVSIARQQEIKAGLYLMLLQKREENAIALAATANNAKIIDEAIADDIPVSPKRRMIYLIALVLGIGIPVGIIYLIGLTKFKLEGRADVEKLTTIPIVGDIPLTDEKNEKDGSIAVFENQNNLMSETFRNIRTNLQFMLQNDKKVILVTSTVSGEGKSFISANLAISLSLLGKKVVIVGLDIRKPGLNKVFRLSTKEKGITLYLANPETDLMSLVQPSDINQNLYILPGGTVPPNPTELLARDGLDKAIEILKKNFDYVILDTAPVGMVTDTLLIGRVADLSVYVCRADYTHKVEYTLINELAEEKKLPNLCTVINGVDLKRRKYGYYYGYGKYGKYYGYGKRYGYGYGYGQEKGAKS” the protein production was “failed”.
For “PSEAPERVMVPIANPKTVESLLDLAFIVRGQSSEPLYPLTVAQGTNGDAESEVAKAEKVLAHAVTYAAGASVPIQMLTRLDPNIASGIIRAIEETRITTLVIGWNGKRSTPQLIFGGILDQLLERTEEMVLVSK”, the protein production was “failed”.
In the case of “MAAWCSPRWLRVAVGTPRLPAAAGRGVQQPQGGVVAASLCRKLCVSAFGLSMGAHGPRALLTLRPGVRLTGTKSFPFVCTASFHTSASLAKDDYYQILGVPRNASQKDIKKAYYQLAKKYHPDTNKDDPKAKEKFSQLAEAYEVLSDEVKRKQYDAYGSAGFDPGASSSGQGYWRGGPSVDPEELFRKIFGEFSSSPFGDFQNVFDQPQEYIMELTFNQAAKGVNKEFTVNIMDTCERCDGKGNEPGTKVQHCHYCSGSGMETINTGPFVMRSTCRRCGGRGSIITNPCVVCRGAGQAKQKKRVTVPVPAGVEDGQTVRMPVGKREIFVTFRVQKSPVFRRDGADIHSDLFISIAQAILGGTAKAQGLYETINVTIPAGIQTDQKIRLTGKGIPRINSYGYGDHYIHIKIRVPKRLSSRQQNLILSYAEDETDVEGTVNGVTHTSTGGRTMDSSTGSKDRREAGEDNEGFLSKLKKIFTS”, the protein production is reported as “failed”.
In the case of “MPTYPPSLLQSLLQYIPERELAWDCGAGSGQLTHMLASYFDQVVGTDISQTQLSHAEYYDNISYQLQPAENTTFPDHCFDLITVAQAIHWFDFEAFYAEVRRTIKPSGILAVVGYGLIHVDDLEINAKVQHLYHQTLNGFWDAERHYVDELYQTIPFPFDEIEMPAFQIEAQWTLQQLLQYLNTWSAVQHYILEKNLDPVQQLLSKGLEHHHHHH”, the protein production is reported as “failed”.
With “VSKAVQYMAKRRIGALIVFEKETGLQDYIETGIAMDSNISQELLINVFIPNTPLHDGAMIIQGTKIAAAASYLPLSDSPKISKSLGTRHRAAVGISEVSDAFTVIVSEETGDISVTFDGKLRRDISNEIFEELLAEHWFGTRFQKKGVK” the protein production was “failed”.
In the case of “MSRISVVIPAYNEASDLPQTIQGIRDLSLECEVIVVDDGSVDDTKKIAERLADITVALPVNQGKGQALMEGWKRAEGTHIVMLDADLGSTSSEMAHLLPPLLTNEADLVIGMLPTHSSKKGFGLVKKRAQQYIAKRTGAFLTAPLSGQRAFHRRWLPSLLEENVQGFGVETQMLLHFLLRGAVVKEIPTLMAHRYTGKTISGFIHRFQQWIDIERALRGSNTLEHHHHHH”, the protein production is reported as “not failed”.
With “MKMKHAFGPIILACVLFFIIILIPSKSLVSLISDKKVEDAATSLQKEKLQSVFLQQKMLENSQYLPMYGSSEFLRMDAYHPSNYFKVNPAGFTPYLIGIGGTQSLAHILNMTSTIDELEGKKVVFVLSPQWFTKTGVSQGDFTNNFSKQQAYHFIFNDKMNVEMKKQIAKRLLDYKVVQEDDILKNSLEGIVYNDTKHNIKAGLVKPLAYMHRNILDHRDLFNSIFKIEPMKEKTNVGLRSISWVDARKHAEEEGKAESTTNTFGIENPYYYKHNLKKKLKGLKNFRVNESYEESPEYDDLQIVLNIFKEKNVKPLFISVPVNGPWYDYAGFPKERREVYYKKVREQVEKAGYPVVDFSGHEYDKYFLKDTIHLGWKGWIYFDEAVQNFYNEKLEHHHHHH” the protein production was “failed”.
For “SLYDPAEKYFNCTDIQRAFFEAGIKLGAIFHQYTGIPVNSENASMAEEFIERSTMIQPFVENVRISINNVKRSSGTYSYSSLNEKMLHAEVLINYNGKKVLGVLNYDEGLDYPVMYAKEVL”, the protein production was “not failed”.
In the case of “MSTATLPHTVGKRLFRQTLLLALALSVVFSAVFTVVEYYRSKVSLNESVELLKKTHLDAITAALWSLDRQQIAAQIDGIHHYPFISYVAVVDQGGVVVESGTRSELFGDVRRIDLTATYNGRQVSLGSLYLEIDRQAIMRDALSTAAVTLLFQTLTITIVMLFTFMLFERQVTRHLAAAADYFTSFGFARVQQPLQLDKHRYGDEIDALVEAFNRMRESLAVAYQQQQGMLQAVRESEALLRAIARRIPNGGVWVVDTDGRYIMFEGSLVESLGLSGQEALGRMPGDLFGEPLADRLVGCYRLALAGGTLSEEIEYRERVLWIQFAPLEDEHGAVMAAVALGIDVTERRQAEAERREMLQRLGQAHKMEAVGRLAGGIAHDYNNKLTVILGYAHVLKLTGFQSKEAPEQLDQIIRAAEHSRDITRQLLAFTRSERVNPVRVDLNRLISQSSKSLTRLIGEDITLSHVAGADLWPVRIDPTQADQLLMNLVMNARDAIAGTGSVTIATSNVVLDRATVRHLQGASPGEYVLMTVSDTGCGMDPEVMEHIFEPFYTTKEMGKGTGLGLATVYGIVRQNGGAISVESEPGGGSVFSIYLPRFVGESHDVRRLGEVDETLPARTTLLVDDDDAVRDITALMLRRLGHTVITASDPDEAIHLCQQPGIVVDLILTDVIMPSMNGREMVRSILSHQKAAKVLYMSGYPADVVEGRGAVDADARLLSRLLKLK”, the protein production is reported as “failed”.
With “QHTLKQFAADSALTTTTPLCSEVPLFDINALGDWTYLGTSLPAKFAKLFASILHCIDDEYFLITPVEKVRVQVEDAPLLIVDFERAQPHSLLNVSTSIGTLHHNVDIKQMKLTDDSVYLPLERGLWGKLGRACYYNFVNEFNLSDLNEQ” the protein production was “not failed”.
In the case of “PTNIHKIHEVQKKLQEEVSIVLIDIADIIVNPKKENGYSRDLYTLNSLIDSSISETYDNINNTLLSDTRFFLEHMDIIKSQRDILENLYSYVSQLNSTPPQAHILSAFIHKIGYTEFEAETGNLLLEELKRLMISMKNQPLPVDRTEFENRAILFLCLTELKQFLVNRKHAQML”, the protein production is reported as “not failed”.
For “MKRKLIYLFIALAATILPAHAQKFLNDALTLSNVSLWQQGNSLYVGMTVDMANLTIGSARSLSLIPLLTDGQHNVPLQEIIVNGKRREKAYLRGLAISKQESTAIIVPYNKRETFNYTQVIPYQPWMANASLQLVENLCGCGNYQEMNAQELITNDVSTEAKRLSAMSPIVAYIQPTVEVVKNRSEQYEAHLDFPVNKSVILTDFMNNHSELVNIHSMFDKIQNDKNLTVQSISIEGFASPEGPLAFNEQLSKKRAEALKDYLVKNEKASAKLYKVTFGGENWDGLVKALESSSMKDKETFLNIIKNTTNDVKRKQEIMKVGGGAPYRTMLKEIYPGLRKVNCKIDYTVVNFDVEQGRIIIRENPKYLSLNEMYQVANSYPKGSKDFVDVFDIAVRMYPTDAVANLNAAAVALSQKDINTALKYMEKADHTTAEFLNNTGVYNFLNGDIQRATAAFEQAAKLGNEAAQANLKQLQQIMNMKMSK”, the protein production was “failed”.
In the case of “KNIVVDFTEYNPLHNGHKYCMDFGKSEGLFISVIPGPLERSGRGIPYLVNRHIRAEMALLAGADLVVEGPPMGIMGSGQYMQCLIKIFSALNGDIIPRGYIEEETMERVINSINNGNHIKIKPYNISCIETREKLGEKLEIDNYVIASMSYTIYKLKENFPKWNPKFKFIERIEGISGTKIREGVFNNNFESIKHMLPITTIDVFKNFGDNLSEIILKRNEEMVLDTVNNFDLNKYLPENISEKLNEKEYYESIE”, the protein production is reported as “not failed”.
In the case of “MDTMRDRFAPVVSRLLDEDPRVVVVLAEIGKDGFTEARRRHPDRVINVGIREQLLVGAGAGLALTGLRPVLHTFASFLVERPFEQVKLDLGHQDVGAVLVSAAASFDWPAGGYTHMSPGDVALLDTLDGWTMHVPGHPDEAETLLRHAVAAGDDKVYVRLSVQSNARRRAVDGERFLTVREGRAGVVVAVGPLLDPVLEATEGLDVTVLYATTVRPFDAVALRRATETAGTDVVLVEPYLAGTSTAAANDALHDVPHRVLGLGVGRPELRRYGSVDEHMAAHGLDAGSLRQRIAEFAGAPARA”, the protein production is reported as “failed”.

— a protein production outcome set (Wang et al. 2014)
